Data as given in patent US10253089B2, “Matrix metalloproteinase cleavable protein polymers for cancer gene therapy” (The University of Utah Research Foundation, priority 2012, dated 2019).

How the values were obtained:
[1] = 12 week subchronic toxicity study; assay type: in vivo, CD-1 immunocompetent mice
Description: Mice were anesthetized and maintained under anesthesia with 3% isofluorane in oxygen. After shaving and cleaning the injection site with 60% isopropanol, mice were subcutaneously injected in the right flank with 50 μl of solution using a 250 μl Hamilton syringe with a 26G needle. […] The injection site was gently clamped for 10 seconds to prevent leakage, after which mice were returned to their cages. For consistency, the day of viral injection was defined as day 0.
For treatment groups, a suspension of 1 mg GCV (Sigma Aldrich, St. Louis, Mo.) per ml of 0.9% physiological saline was prepared and sterilized through a 0.22 μm filter. Each day, animal weights were recorded, injection sites cleaned with 60% isopropanol, and mice injected i.p. with 1 mg/ml GCV suspension through a 26G needle sufficient for a total dose of 25 mg/kg body weight. Average dosing volume for these studies was approximately 0.6 ml. Mice were injected daily for the first four weeks of the 12 week recovery study, and for the entirety of the 1, 2, and 4 week studies.
The results for the 12 week subchronic toxicity study (FIG. 18) reveal many interesting points about SELP and its ability to improve the Ad.HSVtk/GCV toxicity profile. […]

[2] = molecular target: T1, MMP-2 (Homo sapiens, UniProt P08253); assay: Hydrogel protein loss in the presence of MMP-2; assay type: biochemical; conditions: 10 wt % hydrogel, MMP-2 10 nM, two weeks
T1 sequence (P08253 110-660): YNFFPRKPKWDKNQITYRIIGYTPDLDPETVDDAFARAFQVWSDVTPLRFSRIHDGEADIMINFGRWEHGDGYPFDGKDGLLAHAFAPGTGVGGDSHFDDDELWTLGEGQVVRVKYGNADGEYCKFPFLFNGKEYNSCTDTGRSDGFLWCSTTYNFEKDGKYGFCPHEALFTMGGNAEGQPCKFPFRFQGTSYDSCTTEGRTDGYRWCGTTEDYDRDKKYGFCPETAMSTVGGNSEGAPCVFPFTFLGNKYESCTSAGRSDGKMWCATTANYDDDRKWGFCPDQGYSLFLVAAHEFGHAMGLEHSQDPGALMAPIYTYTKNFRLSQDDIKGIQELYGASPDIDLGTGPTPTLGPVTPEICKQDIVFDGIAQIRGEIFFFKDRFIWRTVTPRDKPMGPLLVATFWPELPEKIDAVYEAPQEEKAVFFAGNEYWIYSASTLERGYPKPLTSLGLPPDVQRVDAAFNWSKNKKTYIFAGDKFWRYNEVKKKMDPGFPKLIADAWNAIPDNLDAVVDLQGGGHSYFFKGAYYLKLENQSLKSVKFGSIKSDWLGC
Description: The properties of hydrogels formed from SELPs are strongly dependent on the shear applied to liquid solutions of polymer prior to gelation. SELPs solubilized in phosphate buffered saline were loaded into a 1 ml luer-lock syringe connected at the hub to another 1 ml luer-lock syringe via two 27G needles, joined by a section of 0.0155″ HPLC tubing. The SELP solution was passed through this device at maximum hand pressure for five full bidirectional cycles, at which point it was used for studies.
Hydrogels were characterized for their sensitivity to MMP degradation in the context of protein loss from the gel, changes in mechanical properties, and release of model 100 nm fluorescent nanoparticles. […] Syringes were sealed with Parafilm and allowed to gel upright overnight at 37° C. […]
Protein loss was quantified using a Modified Lowry Assay Kit, and using known SELP solutions for the standard curve instead of the supplied bovine serum albumin, as SELP contains few Lowry-reactive amino acids. The mechanical properties of SELPs were evaluated in cyclic compression at 1 Hz and 1% strain, with ˜10 grams of preloading applied for 10 minutes to eliminate stress relaxation. Stress was measured using a 2 lb load cell. Release was quantified by measuring the fluorescence of release samples with an excitation/emission of 260/515. […]

[3] = molecular target: T1, MMP-2; assay: Enzymatic digest of polymer by MMP-2, SDS-PAGE; assay type: biochemical; conditions: 1 mg/ml polymer, 10 nM and 40 nM MMP-2, 2-48 hours, room temperature
Description: This buffer recipe is sourced from the Molecular Probes EnzChek Gelatinase/Collagenase Assay Kit (Invitrogen, Carlsbad, Calif.), which was used to confirm the activity of MMP-2 and MMP-9 prior to use. 2× Laemmli Buffer was supplemented with 5% β-mercaptoethanol and added 1:1 by volume to the polymer solutions, which were then placed in a PCR thermal cycler and heated to 95° C. for five minutes to denature the protein. 25 μl of each sample was added to 4-15% Bis-Tris precast PAGE gel and electrophoresis was performed at 200V until the dye front reached the bottom of the gel, approximately 30 minutes. Kaleidoscope protein standard was used as a molecular weight marker. Following electrophoresis, gels were stained with GelCode Blue (colloidal Coomassie formulation) following manufacturer's instructions for staining and destaining.
100 μl samples of each polymer were digested with a final concentration of 10 nM and 40 nM MMP-2 or MMP-9. MMP samples were incubated at room temperature for 2, 4, 12, 24, 36, and 48 hours and samples were run on PAGE gels and stained with GelCode Blue to visualize band patterns corresponding to protein degradation.
Additionally, this digestion is dependent on both time of exposure and concentration of MMP.

B1: SELP815K: silk-elastin-like protein polymer, longer silk units, fifteen elastin units, lysine elastin unit; monomer repeated 6 times (SEQ ID NO. 21) (protein)
chain: MDPVVLQRRDWENPGVTQLNRLAAHPPFASDPMGAGSGAGAGSGAGAGSGVGVPGVGVPGVGVPGVGVPGKGVPGVGVPGVGVPGVGVPGVGVPGVGVPGVGVPGVGVPGVGVPGVGVPGVGVPGVGVPGAGAGSGAGAGSGAGAGSGAGAGSGAGAGSGAGAGAGSGAGAGSGAGAGSGVGVPGVGVPGVGVPGVGVPGKGVPGVGVPGVGVPGVGVPGVGVPGVGVPGVGVPGVGVPGVGVPGVGVPGVGVPGVGVPGAGAGSGAGAGSGAGAGSGAGAGSGAGAGSGAGAGAGSGAGAGSGAGAGSGVGVPGVGVPGVGVPGVGVPGKGVPGVGVPGVGVPGVGVPGVGVPGVGVPGVGVPGVGVPGVGVPGVGVPGVGVPGVGVPGAGAGSGAGAGSGAGAGSGAGAGSGAGAGSGAGAGAGSGAGAGSGAGAGSGVGVPGVGVPGVGVPGVGVPGKGVPGVGVPGVGVPGVGVPGVGVPGVGVPGVGVPGVGVPGVGVPGVGVPGVGVPGVGVPGAGAGSGAGAGSGAGAGSGAGAGSGAGAGSGAGAGAGSGAGAGSGAGAGSGVGVPGVGVPGVGVPGVGVPGKGVPGVGVPGVGVPGVGVPGVGVPGVGVPGVGVPGVGVPGVGVPGVGVPGVGVPGVGVPGAGAGSGAGAGSGAGAGSGAGAGSGAGAGSGAGAGAGSGAGAGSGAGAGSGVGVPGVGVPGVGVPGVGVPGKGVPGVGVPGVGVPGVGVPGVGVPGVGVPGVGVPGVGVPGVGVPGVGVPGVGVPGVGVPGAGAGSGAGAGSGAGAGSGAGAGSGAGAGSGAGAMDPGRYQDLRSHHHHHH
modifications: monomer repeated 6 times; Hybrid of Homo sapein and Bombyx mori
toxicity conclusion of the statistical comparison ([1]; 12 week study, comparison named in the table line): SELP itself is not toxic in | p (ANOVA and Bonferroni post-test) Vs Control ([1]; 12 week subchronic toxicity study): p > .05 | higher protein loss compared to control [2]: statistically insignificant | digestion by MMP-2 [3]: is not
